Starred links: 1 amine or outer side, 2 acyl side, 3 side chain; linkers in the order of their positions; H or OH if unused. Positions of bridges follow the written chain, without caps; N, C: chain ends. Non-standard residues stand in square brackets, D forms with d. Primed or numbered codes have the meaning given here. PyrS(3) = (S)-1-((allyloxy)carbonyl)-3-aminopyrrolidine-3-carboxylic acid, stapling residue, C=CCOC(=O)N1CC[C@@](N[*:1])(C(=O)[*:2])C1; PyrS″ = (S)-1-((allyloxy)carbonyl)-3-aminopyrrolidine-3-carboxylic acid (stapling residue), C=CCOC(=O)N1CC[C@@](N[*:1])(C(=O)[*:2])C1; PyrS = (S)-1-((allyloxy)carbonyl)-3-aminopyrrolidine-3-carboxylic acid, C=CCOC(=O)N1CC[C@@](N[*:1])(C(=O)[*:2])C1; Phe(3-CONH2) = NC(=O)c1cccc(C[C@H](N)C(=O)O)c1; Phe(4-CONH2) = NC(=O)c1ccc(C[C@H](N)C(=O)O)cc1; Phe(2-CONH2) = NC(=O)c1ccccc1C[C@H](N)C(=O)O; Phe(3-OMe) = COc1cccc(C[C@H](N)C(=O)O)c1; Ala(cPent) = N[C@@H](CC1CCCC1)C(=O)O; hPhe = N[C@@H](CCc1ccccc1)C(=O)O; 2Pal = N[C@@H](Cc1ccccn1)C(=O)O; 3Pal = N[C@@H](Cc1cccnc1)C(=O)O; 4Pal = N[C@@H](Cc1ccncc1)C(=O)O; R8 = C=CCCCCCC[C@@](C)(N)C(=O)O
T1: full-length beta-Catenin (Uniprot ID P35222) (Homo sapiens (Human), UniProt P35222 2-781)
T1 construct: Used full-length in both the FP and the AlphaScreen assay; also called B-Catenin; bCat
T1 sequence: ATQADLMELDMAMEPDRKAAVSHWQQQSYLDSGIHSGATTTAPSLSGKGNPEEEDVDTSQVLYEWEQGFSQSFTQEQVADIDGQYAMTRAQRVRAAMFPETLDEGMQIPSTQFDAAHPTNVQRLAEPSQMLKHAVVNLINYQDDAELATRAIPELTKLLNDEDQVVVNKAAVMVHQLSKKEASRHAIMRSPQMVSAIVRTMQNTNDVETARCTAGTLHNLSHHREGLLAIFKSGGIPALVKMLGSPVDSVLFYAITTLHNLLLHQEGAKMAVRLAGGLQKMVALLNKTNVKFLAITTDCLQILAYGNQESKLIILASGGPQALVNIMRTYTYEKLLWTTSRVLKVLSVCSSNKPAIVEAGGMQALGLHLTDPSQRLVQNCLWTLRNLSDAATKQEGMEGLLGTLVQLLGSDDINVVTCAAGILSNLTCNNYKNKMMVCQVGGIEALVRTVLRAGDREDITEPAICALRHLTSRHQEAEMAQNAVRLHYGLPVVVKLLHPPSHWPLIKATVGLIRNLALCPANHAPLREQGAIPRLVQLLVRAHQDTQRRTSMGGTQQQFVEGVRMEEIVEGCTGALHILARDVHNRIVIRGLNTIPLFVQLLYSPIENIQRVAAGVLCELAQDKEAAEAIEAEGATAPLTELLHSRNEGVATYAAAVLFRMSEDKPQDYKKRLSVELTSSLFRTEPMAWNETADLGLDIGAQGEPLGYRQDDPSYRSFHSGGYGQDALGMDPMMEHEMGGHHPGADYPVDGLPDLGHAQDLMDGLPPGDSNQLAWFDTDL

T2: full-length beta-Catenin (Uniprot ID P35222) (Homo sapiens (Human), UniProt P35222 2-781)
T2 construct: also called B-Catenin; bCat
T2 sequence: T1 sequence

B1: I-87 (peptide)
peptide: Ac-FDA[R8]DDAA[3Pal]V[PyrS″]FWQ-NH2
modifications: staple 4-11; not fully specified; printed as Ac-Phe-Asp-Ala-R8-Asp-Asp-Ala-Ala-3PyrA-Val-PyrS-Phe-Trp-Gln-NH2
notes: Stapled peptide; also called Ac-Phe-Asp-Ala-R8-Asp-Asp-Ala-Ala-3PyrA-Val-PyrS-Phe-Trp-Gln-NH2
B2: I-83 (peptide)
peptide: Ac-FDA[R8]DDAAFV[PyrS][3Pal]WQ-NH2
modifications: staple 4-11
notes: Stapled peptide; also called Ac-Phe-Asp-Ala-R8-Asp-Asp-Ala-Ala-Phe-Val-PyrS-3PyrA-Trp-Gln-NH2
B3: I-84 (peptide)
peptide: Ac-FDA[R8]DDAAFV[PyrS″][4Pal]WQ-NH2
modifications: staple 4-11; not fully specified; printed as Ac-Phe-Asp-Ala-R8-Asp-Asp-Ala-Ala-Phe-Val-PyrS-4PyrA-Trp-Gln-NH2
notes: Stapled peptide; also called Ac-Phe-Asp-Ala-R8-Asp-Asp-Ala-Ala-Phe-Val-PyrS-4PyrA-Trp-Gln-NH2
B4: I-82 (peptide)
peptide: Ac-FDA[R8]DDAAFV[PyrS″][3Pal]WQ-NH2
modifications: staple 4-11
notes: as for B2
B5: I-90 (peptide)
peptide: Ac-FDA[R8]DDAAFV[PyrS″][Phe(4-CONH2)]WQ-NH2
modifications: staple 4-11
notes: Stapled peptide; also called Ac-Phe-Asp-Ala-R8-Asp-Asp-Ala-Ala-Phe-Val-PyrS-4CBMF-Trp-Gln-NH2
B6: I-81 (peptide)
peptide: Ac-FDA[R8]DDAAFV[PyrS″][2Pal]WQ-NH2
modifications: staple 4-11
notes: Stapled peptide; also called Ac-Phe-Asp-Ala-R8-Asp-Asp-Ala-Ala-Phe-Val-PyrS-2PyrA-Trp-Gln-NH2
B7: I-88 (peptide)
peptide: Ac-FDA[R8]DDAA[3Pal]V[PyrS″]FWQ-NH2
modifications: staple 4-11; not fully specified; printed as Ac-Phe-Asp-Ala-R8-Asp-Asp-Ala-Ala-3PyrA-Val-PyrS-Phe-Trp-Gln-NH2
notes: as for B1
B8: I-89 (peptide)
peptide: Ac-FDA[R8]DDAAFV[PyrS″][Phe(4-CONH2)]WQ-NH2
modifications: staple 4-11; not fully specified; printed as Ac-Phe-Asp-Ala-R8-Asp-Asp-Ala-Ala-Phe-Val-PyrS-4CBMF-Trp-Gln-NH2
notes: as for B5
B9: I-85 (peptide)
peptide: Ac-FDA[R8]DDAAFV[PyrS][4Pal]WQ-NH2
modifications: staple 4-11; not fully specified; printed as Ac-Phe-Asp-Ala-R8-Asp-Asp-Ala-Ala-Phe-Val-PyrS-4PyrA-Trp-Gln-NH2
notes: as for B3
B10: I-86 (peptide)
peptide: Ac-FDA[R8]DDAA[2Pal]V[PyrS]FWQ-NH2
modifications: staple 4-11
notes: Stapled peptide; also called Ac-Phe-Asp-Ala-R8-Asp-Asp-Ala-Ala-2PyrA-Val-PyrS-Phe-Trp-Gln-NH2
B11: I-107 (peptide)
peptide: Ac-FDA[R8]DDAAFV[PyrS″][Phe(3-CONH2)]WQ-NH2
modifications: staple 4-11
notes: Stapled peptide composition
B12: I-103 (peptide)
peptide: Ac-FDA[R8]DDAA[Phe(3-OMe)]V[PyrS″]FWQ-NH2
modifications: staple 4-11; not fully specified; printed as Ac-Phe-Asp-Ala-R8-Asp-Asp-Ala-Ala-3OMeF-Val-PyrS-Phe-Trp-Gln-NH2
notes: Stapled peptide composition
B13: I-93 (peptide)
peptide: Ac-FDA[R8]DDAAFV[PyrS″][Ala(cPent)]WQ-NH2
modifications: staple 4-11
notes: Stapled peptide composition; same description as I-94, separate earlier-eluting HPLC peak (staple isomer)
B14: I-101 (peptide)
peptide: Ac-FDA[R8]DDAAFV[PyrS″][Phe(3-OMe)]WQ-NH2
modifications: staple 4-11; not fully specified; printed as Ac-Phe-Asp-Ala-R8-Asp-Asp-Ala-Ala-Phe-Val-PyrS-3OMeF-Trp-Gln-NH2
notes: Stapled peptide composition
B15: I-94 (peptide)
peptide: Ac-FDA[R8]DDAAFV[PyrS][Ala(cPent)]WQ-NH2
modifications: staple 4-11
notes: Stapled peptide composition; same description as I-93, separate later-eluting HPLC peak (staple isomer)
B16: I-102 (peptide)
peptide: Ac-FDA[R8]DDAAFV[PyrS″][Phe(3-OMe)]WQ-NH2
modifications: staple 4-11; not fully specified; printed as Ac-Phe-Asp-Ala-R8-Asp-Asp-Ala-Ala-Phe-Val-PyrS-3OMeF-Trp-Gln-NH2
notes: Stapled peptide composition
B17: I-92 (peptide)
peptide: Ac-FDA[R8]DDAA[Phe(4-CONH2)]V[PyrS″]FWQ-NH2
modifications: staple 4-11
notes: Stapled peptide composition; same description as I-91, separate later-eluting HPLC peak (staple isomer)
B18: I-97 (peptide)
peptide: Ac-FDA[R8]D[hPhe]AAFV[PyrS″]FWQ-NH2
modifications: staple 4-11; not fully specified; printed as Ac-Phe-Asp-Ala-R8-Asp-hPhe-Ala-Ala-Phe-Val-PyrS-Phe-Trp-Gln-NH2
notes: Stapled peptide composition; same description as I-98, separate earlier-eluting HPLC peak (staple isomer)
B19: I-95 (peptide)
peptide: Ac-FDA[R8]DDAA[Ala(cPent)]V[PyrS″]FWQ-NH2
modifications: staple 4-11
notes: Stapled peptide composition; same description as I-96, separate earlier-eluting HPLC peak (staple isomer)
B20: I-96 (peptide)
peptide: Ac-FDA[R8]DDAA[Ala(cPent)]V[PyrS]FWQ-NH2
modifications: staple 4-11
notes: Stapled peptide composition; same description as I-95, separate later-eluting HPLC peak (staple isomer)
B21: I-105 (peptide)
peptide: Ac-FDA[R8]DDAAFV[PyrS″][Phe(2-CONH2)]WQ-NH2
modifications: staple 4-11; not fully specified; printed as Ac-Phe-Asp-Ala-R8-Asp-Asp-Ala-Ala-Phe-Val-PyrS-2CBMF-Trp-Gln-NH2
notes: Stapled peptide composition
B22: I-98 (peptide)
peptide: Ac-FDA[R8]D[hPhe]AAFV[PyrS″]FWQ-NH2
modifications: staple 4-11; not fully specified; printed as Ac-Phe-Asp-Ala-R8-Asp-hPhe-Ala-Ala-Phe-Val-PyrS-Phe-Trp-Gln-NH2
notes: Stapled peptide composition; same description as I-97, separate later-eluting HPLC peak (staple isomer)
B23: I-109 (peptide)
peptide: Ac-FDA[R8]DDAA[Phe(3-CONH2)]V[PyrS″]FWQ-NH2
modifications: staple 4-11; not fully specified; printed as Ac-Phe-Asp-Ala-R8-Asp-Asp-Ala-Ala-3CBMF-Val-PyrS-Phe-Trp-Gln-NH2
notes: Stapled peptide composition
B24: I-104 (peptide)
peptide: Ac-FDA[R8]DDAA[Phe(3-OMe)]V[PyrS″]FWQ-NH2
modifications: staple 4-11; not fully specified; printed as Ac-Phe-Asp-Ala-R8-Asp-Asp-Ala-Ala-3OMeF-Val-PyrS-Phe-Trp-Gln-NH2
notes: Stapled peptide composition
B25: I-106 (peptide)
peptide: Ac-FDA[R8]DDAAFV[PyrS][Phe(2-CONH2)]WQ-NH2
modifications: staple 4-11; not fully specified; printed as Ac-Phe-Asp-Ala-R8-Asp-Asp-Ala-Ala-Phe-Val-PyrS-2CBMF-Trp-Gln-NH2
notes: Stapled peptide composition
B26: I-108 (peptide)
peptide: Ac-FDA[R8]DDAA[Phe(3-CONH2)]V[PyrS″]FWQ-NH2
modifications: staple 4-11; not fully specified; printed as Ac-Phe-Asp-Ala-R8-Asp-Asp-Ala-Ala-3CBMF-Val-PyrS-Phe-Trp-Gln-NH2
notes: Stapled peptide composition
B27: I-91 (peptide)
peptide: Ac-FDA[R8]DDAA[Phe(4-CONH2)]V[PyrS″]FWQ-NH2
modifications: staple 4-11
notes: Stapled peptide composition; same description as I-92, separate earlier-eluting HPLC peak (staple isomer)
B28: I-122 (peptide)
peptide: Ac-FDA[R8]DDAAFV[PyrS″]DWQ-NH2
modifications: staple 4-11; not fully specified; printed as Ac-Phe-Asp-Ala-R8-Asp-Asp-Ala-Ala-Phe-Val-PyrS-Asp-Trp-Gln-NH2
notes: Stapled peptide composition
B29: I-99 (peptide)
peptide: Ac-FDA[R8]DFAAFV[PyrS]FWQ-NH2
modifications: staple 4-11; not fully specified; printed as Ac-Phe-Asp-Ala-R8-Asp-Phe-Ala-Ala-Phe-Val-PyrS-Phe-Trp-Gln-NH2
notes: Stapled peptide composition; same description as I-100, separate earlier-eluting HPLC peak (staple isomer)
B30: I-100 (peptide)
peptide: Ac-FDA[R8]DFAAFV[PyrS″]FWQ-NH2
modifications: staple 4-11
notes: Stapled peptide composition; same description as I-99, separate later-eluting HPLC peak (staple isomer)
B31: I-121 (peptide)
peptide: Ac-FDA[R8]DDAAFV[PyrS(3)]DWQ-NH2
modifications: staple 4-11
notes: Stapled peptide composition

molecular target: T1, full-length beta-Catenin (Uniprot ID …); test: AlphaScreen competition; full-length beta-catenin, biotin-TCF4(10-53) probe
Procedure: (§1) Equal volume of the titrated peptide was added to the plate and incubated for 15 minutes at 20° C. Then 4 uL of donor and 4 uL acceptor beads at 10 ug/mL were added to the plate, for a 16 uL reaction pool and protected from light for 60 minutes at 20° C. prior to read. Reads were performed on a CLARIOstar plate reader (BMG Labtech) in duplicate, and data were fitted to a 1:1 binding model with hill slope using an in-house script. All provided concentrations are final concentrations.

Binder | EC50
B1 | ≥ 10 µM
B2 | ≥ 10 µM
B3 | ≥ 10 µM
B4 | ≥ 10 µM
B5 | ≥ 10 µM
B6 | 9.78 µM
B7 | ≥ 10 µM
B8 | 5.64 µM
B9 | ≥ 10 µM
B10 | ≥ 10 µM

molecular target: T2, full-length beta-Catenin (Uniprot ID …); test: Alphascreen competition; biotin-TCF4(10-53) probe with full-length beta-catenin
Procedure: as §1

Binder | EC50
B11 | ≥ 10 µM
B12 | 4.95 µM
B13 | ≥ 10 µM
B14 | ≥ 10 µM
B15 | 7.01 µM
B16 | ≥ 10 µM
B17 | 9.15 µM
B18 | 7.01 µM
B19 | 8.66 µM
B20 | ≥ 10 µM
B21 | ≥ 10 µM
B22 | ≥ 10 µM
B23 | 8.82 µM
B24 | 6.17 µM
B25 | ≥ 10 µM
B26 | ≥ 10 µM
B27 | 4.72 µM
B28 | ≥ 10 µM
B29 | ≥ 10 µM
B30 | 9.23 µM
B31 | 4.46 µM
